The results in this text go back to the supplement of paper PMC9112550, “Optimization of the antimicrobial peptide Bac7 by deep mutational scanning” (BMC Biology, 2022).
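Note: peptides expressed intracellularly from a pBAD plasmid library in pooled LB shake-flask culture, induced with 0.3% L-arabinose, DNA abundance read by NGS, three biological replicates, DESeq2 with apeglm shrinkage.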

The data set deals with Escherichia coli TOP10. Briefly: shrunken log2 fold change of peptide-encoding DNA abundance (4.5 h post-induction vs induction); higher = less antimicrobial activity (less host growth inhibition). The following applies: time post-induction: 4.5 h; library: site-saturation at positions 5, 18, 19, 20.
With RRIRSRPPRLPRPRPRPKLGPRP, the “shrunken log2 fold change” value was 0.281.

For RRIRQRPPRLPRPRPRPDYWPRP, the “shrunken log2 fold change” value was 0.156.

Regarding RRIRQRPPRLPRPRPRPFMTPRP, the “shrunken log2 fold change” value was -0.00963.

On to RRIRKRPPRLPRPRPRPSNEPRP, for which the “shrunken log2 fold change” value was -0.183.

RRIRHRPPRLPRPRPRPTPKPRP: the “shrunken log2 fold change” value was -0.0377.

RRIRHRPPRLPRPRPRPDTVPRP: the “shrunken log2 fold change” value was determined as 0.028.

As for RRIRFRPPRLPRPRPRPLFWPRP, the “shrunken log2 fold change” value came out at 0.201.

For the sequence RRIRRRPPRLPRPRPRPFAGPRP, the “shrunken log2 fold change” value is -0.0164.

With RRIRLRPPRLPRPRPRPQDTPRP, the “shrunken log2 fold change” value was -0.409.

Turning to RRIRIRPPRLPRPRPRPRPMPRP, the “shrunken log2 fold change” value is 0.129.

For RRIRWRPPRLPRPRPRPAMYPRP, the “shrunken log2 fold change” value was -0.112.

Consider RRIRIRPPRLPRPRPRPPKEPRP, for which the “shrunken log2 fold change” value is -0.0998.

Consider RRIRQRPPRLPRPRPRPTPDPRP, for which the “shrunken log2 fold change” value was found to be 0.711.

As to RRIRGRPPRLPRPRPRPFHRPRP, the “shrunken log2 fold change” value is -0.118.

Turning to RRIRMRPPRLPRPRPRPVKQPRP, the “shrunken log2 fold change” value amounted to 0.0432.

For the sequence RRIRGRPPRLPRPRPRPNYDPRP, the “shrunken log2 fold change” value was 0.134.

Regarding RRIRARPPRLPRPRPRPSHEPRP, the “shrunken log2 fold change” value came out at 0.415.

Consider RRIRERPPRLPRPRPRPTVEPRP, for which the “shrunken log2 fold change” value was -0.0686.

In the case of RRIRCRPPRLPRPRPRPIRGPRP, the “shrunken log2 fold change” value is 0.0532.

RRIRQRPPRLPRPRPRPVASPRP: the “shrunken log2 fold change” value was -0.0704.

In the case of RRIRVRPPRLPRPRPRPEIGPRP, the “shrunken log2 fold change” value stood at 0.0353.

For RRIRCRPPRLPRPRPRPAKDPRP, the “shrunken log2 fold change” value was 0.021.

With RRIRGRPPRLPRPRPRPKGRPRP, the “shrunken log2 fold change” value was 0.792.

Take RRIRTRPPRLPRPRPRPQHKPRP: the “shrunken log2 fold change” value is -0.0821.

For RRIRARPPRLPRPRPRPNHNPRP, the “shrunken log2 fold change” value was -0.542.

Regarding RRIRLRPPRLPRPRPRPHDLPRP, the “shrunken log2 fold change” value was -0.308.

Regarding RRIRRRPPRLPRPRPRPMGHPRP, the “shrunken log2 fold change” value is 0.129.

For RRIRMRPPRLPRPRPRPLAHPRP, the “shrunken log2 fold change” value was 0.0417.

For the sequence RRIRDRPPRLPRPRPRPTQPPRP, the “shrunken log2 fold change” value was determined as 0.0164.

RRIRTRPPRLPRPRPRPCTNPRP: the “shrunken log2 fold change” value is -0.0102.

With RRIRSRPPRLPRPRPRPHFLPRP, the “shrunken log2 fold change” value is -0.318.

Consider RRIRVRPPRLPRPRPRPGEDPRP, for which the “shrunken log2 fold change” value was found to be 0.0912.

On to RRIRIRPPRLPRPRPRPCAKPRP, for which the “shrunken log2 fold change” value came out at 0.0416.

Consider RRIRPRPPRLPRPRPRPHRNPRP, for which the “shrunken log2 fold change” value is -0.11.

On to RRIRFRPPRLPRPRPRPCATPRP, for which the “shrunken log2 fold change” value is 0.0672.

Consider RRIRQRPPRLPRPRPRPGEFPRP, for which the “shrunken log2 fold change” value was 0.313.

For RRIRCRPPRLPRPRPRPKASPRP, the “shrunken log2 fold change” value was -0.00163.

As for RRIRWRPPRLPRPRPRPDLWPRP, the “shrunken log2 fold change” value came out at 0.234.

For RRIRSRPPRLPRPRPRPWVFPRP, the “shrunken log2 fold change” value turned out to be 0.0645.

In the case of RRIRWRPPRLPRPRPRPACRPRP, the “shrunken log2 fold change” value came out at 0.258.

Take RRIRWRPPRLPRPRPRPNMSPRP: the “shrunken log2 fold change” value was -0.00987.

Take RRIRERPPRLPRPRPRPNEGPRP: the “shrunken log2 fold change” value was -0.0857.

For the sequence RRIRKRPPRLPRPRPRPNLPPRP, the “shrunken log2 fold change” value stood at 0.118.

Take RRIRCRPPRLPRPRPRPDMVPRP: the “shrunken log2 fold change” value is -0.184.

As to RRIRPRPPRLPRPRPRPFEQPRP, the “shrunken log2 fold change” value is -0.281.

RRIRRRPPRLPRPRPRPIFKPRP: the “shrunken log2 fold change” value was found to be 0.196.

Consider RRIRDRPPRLPRPRPRPAHDPRP, for which the “shrunken log2 fold change” value is 0.414.

On to RRIRNRPPRLPRPRPRPFYHPRP, for which the “shrunken log2 fold change” value is -0.0822.

On to RRIRPRPPRLPRPRPRPPIKPRP, for which the “shrunken log2 fold change” value amounted to 0.355.

For RRIRARPPRLPRPRPRPKTTPRP, the “shrunken log2 fold change” value was determined as 0.0562.

Turning to RRIRARPPRLPRPRPRPAMLPRP, the “shrunken log2 fold change” value amounted to 0.226.

In the case of RRIRARPPRLPRPRPRPYNPPRP, the “shrunken log2 fold change” value was -0.388.

In the case of RRIRSRPPRLPRPRPRPKPVPRP, the “shrunken log2 fold change” value turned out to be 0.0648.

As for RRIRARPPRLPRPRPRPEAHPRP, the “shrunken log2 fold change” value amounted to 0.0341.

Turning to RRIRVRPPRLPRPRPRPETPPRP, the “shrunken log2 fold change” value was 1.14.

Take RRIRGRPPRLPRPRPRPDIEPRP: the “shrunken log2 fold change” value came to 0.735.

As to RRIRYRPPRLPRPRPRPNTNPRP, the “shrunken log2 fold change” value is -1.09.

RRIRERPPRLPRPRPRPPLIPRP: the “shrunken log2 fold change” value was -0.435.

As for RRIRTRPPRLPRPRPRPRQGPRP, the “shrunken log2 fold change” value turned out to be 0.337.

As to RRIRRRPPRLPRPRPRPIGRPRP, the “shrunken log2 fold change” value was determined as 0.00106.

RRIRTRPPRLPRPRPRPQQKPRP: the “shrunken log2 fold change” value was -0.0118.

As for RRIRKRPPRLPRPRPRPAPCPRP, the “shrunken log2 fold change” value worked out at 0.432.

In the case of RRIRDRPPRLPRPRPRPPDCPRP, the “shrunken log2 fold change” value stood at 0.077.

RRIRLRPPRLPRPRPRPRYKPRP: the “shrunken log2 fold change” value was -0.225.

Turning to RRIRIRPPRLPRPRPRPWFEPRP, the “shrunken log2 fold change” value was -0.161.

For RRIRCRPPRLPRPRPRPFLWPRP, the “shrunken log2 fold change” value was -0.119.

RRIRSRPPRLPRPRPRPPKCPRP: the “shrunken log2 fold change” value is -0.087.

Turning to RRIRSRPPRLPRPRPRPKFPPRP, the “shrunken log2 fold change” value amounted to 0.0385.

For the sequence RRIRRRPPRLPRPRPRPMNIPRP, the “shrunken log2 fold change” value is -0.267.

With RRIRHRPPRLPRPRPRPCKDPRP, the “shrunken log2 fold change” value is -0.332.

For the sequence RRIRHRPPRLPRPRPRPCICPRP, the “shrunken log2 fold change” value is -0.347.

For RRIRTRPPRLPRPRPRPCRTPRP, the “shrunken log2 fold change” value is -0.0391.

RRIRQRPPRLPRPRPRPCHMPRP: the “shrunken log2 fold change” value is -0.519.

Take RRIRNRPPRLPRPRPRPPPLPRP: the “shrunken log2 fold change” value turned out to be 0.732.

As to RRIRIRPPRLPRPRPRPANGPRP, the “shrunken log2 fold change” value was 0.0224.

Consider RRIRWRPPRLPRPRPRPLYWPRP, for which the “shrunken log2 fold change” value was -0.34.

RRIRPRPPRLPRPRPRPSAWPRP: the “shrunken log2 fold change” value was 0.368.

Turning to RRIRWRPPRLPRPRPRPYSWPRP, the “shrunken log2 fold change” value is -0.128.

RRIRMRPPRLPRPRPRPKSHPRP: the “shrunken log2 fold change” value is -0.0378.

On to RRIRERPPRLPRPRPRPIPSPRP, for which the “shrunken log2 fold change” value is -0.109.

On to RRIRVRPPRLPRPRPRPRWFPRP, for which the “shrunken log2 fold change” value is -0.0978.

RRIRMRPPRLPRPRPRPIVRPRP: the “shrunken log2 fold change” value is -0.0408.

On to RRIRVRPPRLPRPRPRPWFHPRP, for which the “shrunken log2 fold change” value is -0.711.

Consider RRIRFRPPRLPRPRPRPANGPRP, for which the “shrunken log2 fold change” value is 0.0551.

For RRIRRRPPRLPRPRPRPCECPRP, the “shrunken log2 fold change” value turned out to be 0.076.

As for RRIRIRPPRLPRPRPRPSANPRP, the “shrunken log2 fold change” value was -0.15.

In the case of RRIRARPPRLPRPRPRPPEVPRP, the “shrunken log2 fold change” value was found to be 1.17.

Turning to RRIRFRPPRLPRPRPRPVNYPRP, the “shrunken log2 fold change” value amounted to 0.184.

For the sequence RRIRERPPRLPRPRPRPMQRPRP, the “shrunken log2 fold change” value is -0.00559.

With RRIRHRPPRLPRPRPRPHEHPRP, the “shrunken log2 fold change” value is 0.103.

For RRIRARPPRLPRPRPRPMRYPRP, the “shrunken log2 fold change” value is -0.179.

As for RRIRTRPPRLPRPRPRPATFPRP, the “shrunken log2 fold change” value was -0.129.

As to RRIRGRPPRLPRPRPRPKNGPRP, the “shrunken log2 fold change” value was 0.0583.

As to RRIRWRPPRLPRPRPRPKFLPRP, the “shrunken log2 fold change” value was -0.0144.

As to RRIRMRPPRLPRPRPRPAGPPRP, the “shrunken log2 fold change” value stood at 0.484.

On to RRIRVRPPRLPRPRPRPTQPPRP, for which the “shrunken log2 fold change” value was -0.0625.

Take RRIRWRPPRLPRPRPRPQRFPRP: the “shrunken log2 fold change” value turned out to be 0.206.

Consider RRIRVRPPRLPRPRPRPPREPRP, for which the “shrunken log2 fold change” value stood at 0.267.

As for RRIRQRPPRLPRPRPRPWVAPRP, the “shrunken log2 fold change” value was -0.182.

As for RRIRIRPPRLPRPRPRPKGDPRP, the “shrunken log2 fold change” value came to 0.424.

Take RRIRMRPPRLPRPRPRPWTAPRP: the “shrunken log2 fold change” value was -0.0195.

For the sequence RRIRVRPPRLPRPRPRPEKHPRP, the “shrunken log2 fold change” value was -0.0527.

With RRIRIRPPRLPRPRPRPGTPPRP, the “shrunken log2 fold change” value was -0.0727.

Consider RRIRPRPPRLPRPRPRPDMTPRP, for which the “shrunken log2 fold change” value was -0.293.

For RRIRMRPPRLPRPRPRPLFFPRP, the “shrunken log2 fold change” value amounted to 0.135.

For RRIRYRPPRLPRPRPRPMQTPRP, the “shrunken log2 fold change” value is -0.0135.

On to RRIRSRPPRLPRPRPRPWAKPRP, for which the “shrunken log2 fold change” value was -0.00197.

As to RRIRDRPPRLPRPRPRPRVAPRP, the “shrunken log2 fold change” value came to 0.729.

On to RRIRFRPPRLPRPRPRPPEPPRP, for which the “shrunken log2 fold change” value worked out at 0.54.

Take RRIRERPPRLPRPRPRPMHAPRP: the “shrunken log2 fold change” value amounted to 0.262.

With RRIRQRPPRLPRPRPRPFTYPRP, the “shrunken log2 fold change” value is -0.0211.

With RRIRRRPPRLPRPRPRPSCVPRP, the “shrunken log2 fold change” value worked out at 0.259.

Take RRIRERPPRLPRPRPRPLENPRP: the “shrunken log2 fold change” value came to 0.0225.

In the case of RRIRIRPPRLPRPRPRPLQLPRP, the “shrunken log2 fold change” value was -0.573.

For RRIRARPPRLPRPRPRPTYVPRP, the “shrunken log2 fold change” value came out at 0.504.

RRIRQRPPRLPRPRPRPNNPPRP: the “shrunken log2 fold change” value is -0.282.

Consider RRIRSRPPRLPRPRPRPNMVPRP, for which the “shrunken log2 fold change” value is -0.0658.

RRIRSRPPRLPRPRPRPQIWPRP: the “shrunken log2 fold change” value is -0.167.

As to RRIRIRPPRLPRPRPRPSRRPRP, the “shrunken log2 fold change” value is 0.35.

Take RRIRWRPPRLPRPRPRPKQNPRP: the “shrunken log2 fold change” value turned out to be 0.3.

In the case of RRIRTRPPRLPRPRPRPHWFPRP, the “shrunken log2 fold change” value is -0.132.

Regarding RRIRKRPPRLPRPRPRPAMLPRP, the “shrunken log2 fold change” value turned out to be 0.292.

RRIRTRPPRLPRPRPRPHLPPRP: the “shrunken log2 fold change” value came to 0.236.

RRIRDRPPRLPRPRPRPTYHPRP: the “shrunken log2 fold change” value is -0.0146.

For RRIRARPPRLPRPRPRPHGGPRP, the “shrunken log2 fold change” value stood at 0.301.
